B1: GpH7-A5/GpH7-B3 variant I336_04F/GpL16-k0 (antibody, human IgG1, kappa)
heavy 1: not shown
heavy 2: not shown
light: DIVMTQSPLSLPVTPGEPASISCQASESLVHSNRNTYLHWYLQKPGQSPQLLIYKVSNRFSGVPDRFSGSGSGTDFTLKISRVEAEDVGVYYCSQNTHVPPTFGQGTKVEIERTVAAPSVFIFPPSDEQLKSGTASVVCLLNNFYPREAKVQWKVDNALQSGNSQESVTEQDSKDSTYSLSSTLTLSKADYEKHKVYACEVTHQGLSSPVTKSFNRGEC
notes: heterodimerized IgG1, one H chain mutated; also called He Ab
B2: GpH7-A5/GpH7-B3 variant I336_09D/GpL16-k0 (antibody, human IgG1, kappa)
heavy 1: not shown
heavy 2: not shown
light: B1 light
notes: as for B1
B3: GpH7-A5/GpH7-B3 variant I336_10E/GpL16-k0 (antibody, human IgG1, kappa)
heavy 1: not shown
heavy 2: not shown
light: B1 light
notes: as for B1
B4: GpH7-A5/GpH7-B3 variant I336_11K/GpL16-k0 (antibody, human IgG1, kappa)
heavy 1: not shown
heavy 2: not shown
light: B1 light
notes: as for B1
B5: GpH7-A5/GpH7-B3 variant I336_12R/GpL16-k0 (antibody, human IgG1, kappa)
heavy 1: not shown
heavy 2: not shown
light: B1 light
notes: as for B1
B6: GpH7-A5/GpH7-B3 variant I336_13S/GpL16-k0 (antibody, human IgG1, kappa)
heavy 1: not shown
heavy 2: not shown
light: B1 light
notes: as for B1
B7: GpH7-A5/GpH7-B3 variant I336_14T/GpL16-k0 (antibody, human IgG1, kappa)
heavy 1: not shown
heavy 2: not shown
light: B1 light
notes: as for B1
B8: GpH7-A5/GpH7-B3 variant I336_15Y/GpL16-k0 (antibody, human IgG1, kappa)
heavy 1: not shown
heavy 2: not shown
light: B1 light
notes: as for B1
B9: GpH7-A5/GpH7-B3 variant I336_16H/GpL16-k0 (antibody, human IgG1, kappa)
heavy 1: not shown
heavy 2: not shown
light: B1 light
notes: as for B1
B10: GpH7-A5/GpH7-B3 variant I336_18N/GpL16-k0 (antibody, human IgG1, kappa)
heavy 1: not shown
heavy 2: not shown
light: B1 light
notes: as for B1
B11: GpH7-A5/GpH7-B3 variant I336_19Q/GpL16-k0 (antibody, human IgG1, kappa)
heavy 1: not shown
heavy 2: not shown
light: B1 light
notes: as for B1
B12: GpH7-A5/GpH7-B3 variant S337_01G/GpL16-k0 (antibody, human IgG1, kappa)
heavy 1: not shown
heavy 2: not shown
light: B1 light
notes: as for B1
B13: GpH7-A5/GpH7-B3 variant S337_02A/GpL16-k0 (antibody, human IgG1, kappa)
heavy 1: not shown
heavy 2: not shown
light: B1 light
notes: as for B1
B14: GpH7-A5/GpH7-B3 variant S337_03V/GpL16-k0 (antibody, human IgG1, kappa)
heavy 1: not shown
heavy 2: not shown
light: B1 light
notes: as for B1
B15: GpH7-A5/GpH7-B3 variant S337_04F/GpL16-k0 (antibody, human IgG1, kappa)
heavy 1: not shown
heavy 2: not shown
light: B1 light
notes: as for B1
B16: GpH7-A5/GpH7-B3 variant S337_06M/GpL16-k0 (antibody, human IgG1, kappa)
heavy 1: not shown
heavy 2: not shown
light: B1 light
notes: as for B1
B17: GpH7-A5/GpH7-B3 variant S337_11K/GpL16-k0 (antibody, human IgG1, kappa)
heavy 1: not shown
heavy 2: not shown
light: B1 light
notes: as for B1
B18: GpH7-A5/GpH7-B3 variant E333_20W/GpL16-k0 (antibody, human IgG1, kappa)
heavy 1: not shown
heavy 2: not shown
light: B1 light
notes: He Ab: alteration in one H chain only; also called He Ab
B19: GpH7-A5/GpH7-B3 variant I332_01G/GpL16-k0 (antibody, human IgG1, kappa)
heavy 1: not shown
heavy 2: not shown
light: B1 light
notes: as for B18
B20: GpH7-A5/GpH7-B3 variant I332_13S/GpL16-k0 (antibody, human IgG1, kappa)
heavy 1: not shown
heavy 2: not shown
light: B1 light
notes: as for B18
B21: GpH7-A5/GpH7-B3 variant I332_19Q/GpL16-k0 (antibody, human IgG1, kappa)
heavy 1: not shown
heavy 2: not shown
light: B1 light
notes: as for B18
B22: GpH7-A5/GpH7-B3 variant L234_04F/GpL16-k0 (antibody, human IgG1, kappa)
heavy 1: not shown
heavy 2: not shown
light: B1 light
notes: as for B18
B23: GpH7-A5/GpH7-B3 variant Q295_02A/GpL16-k0 (antibody, human IgG1, kappa)
heavy 1: not shown
heavy 2: not shown
light: B1 light
notes: as for B18
B24: GpH7-A5/GpH7-B3 variant Q295_10E/GpL16-k0 (antibody, human IgG1, kappa)
heavy 1: not shown
heavy 2: not shown
light: B1 light
notes: as for B18
B25: GpH7-A5/GpH7-B3 variant Q295_14T/GpL16-k0 (antibody, human IgG1, kappa)
heavy 1: not shown
heavy 2: not shown
light: B1 light
notes: as for B18
B26: GpH7-A5/GpH7-B3 variant S298_02A/GpL16-k0 (antibody, human IgG1, kappa)
heavy 1: not shown
heavy 2: not shown
light: B1 light
notes: as for B18
B27: GpH7-A5/GpH7-B3 variant S298_03V/GpL16-k0 (antibody, human IgG1, kappa)
heavy 1: not shown
heavy 2: not shown
light: B1 light
notes: as for B18
B28: GpH7-A5/GpH7-B3 variant S298_14T/GpL16-k0 (antibody, human IgG1, kappa)
heavy 1: not shown
heavy 2: not shown
light: B1 light
notes: as for B18
B29: GpH7-A5/GpH7-B3 variant S324_01G/GpL16-k0 (antibody, human IgG1, kappa)
heavy 1: not shown
heavy 2: not shown
light: B1 light
notes: as for B18
B30: GpH7-A5/GpH7-B3 variant S324_02A/GpL16-k0 (antibody, human IgG1, kappa)
heavy 1: not shown
heavy 2: not shown
light: B1 light
notes: as for B18
B31: GpH7-A5/GpH7-B3 variant S324_09D/GpL16-k0 (antibody, human IgG1, kappa)
heavy 1: not shown
heavy 2: not shown
light: B1 light
notes: as for B18
B32: GpH7-A5/GpH7-B3 variant S324_14T/GpL16-k0 (antibody, human IgG1, kappa)
heavy 1: not shown
heavy 2: not shown
light: B1 light
notes: as for B18
B33: GpH7-A5/GpH7-B3 variant S324_15Y/GpL16-k0 (antibody, human IgG1, kappa)
heavy 1: not shown
heavy 2: not shown
light: B1 light
notes: as for B18
B34: GpH7-A5/GpH7-B3 variant S324_16H/GpL16-k0 (antibody, human IgG1, kappa)
heavy 1: not shown
heavy 2: not shown
light: B1 light
notes: as for B18
B35: GpH7-A5/GpH7-B3 variant S324_20W/GpL16-k0 (antibody, human IgG1, kappa)
heavy 1: not shown
heavy 2: not shown
light: B1 light
notes: as for B18
B36: GpH7-A5/GpH7-B3 variant Y300_08L/GpL16-k0 (antibody, human IgG1, kappa)
heavy 1: not shown
heavy 2: not shown
light: B1 light
notes: as for B18

Target: T1, FcγRIa (human, UniProt P12314 16-292)
T1 construct: extracellular domain; also called FcgRI; FcgRIa
Assay: SPR (Biacore), relative to GpH7-A5/GpH7-B3/GpL16-k0 = 100
Experimental: (§1) The heterodimerized antibodies He Abs in which one of the H chains was introduced with an alteration were assayed for their binding activities to each activating FcγR and inhibitory FcγR according to the method described in Example 4. […] The activating FcγRs in FIGS. 26, 27, 28, and 29 are FcγRIa, FcγRIIa (R), FcγRIIa (H), and FcγRIIIa, respectively.
(§2) Analysis of interaction between objective antibody and the FcγR was carried out using Biacore T100 (GE Healthcare). HBS-EP+ (GE Healthcare) was used as the running buffer, and the measurement temperature was set to 25° C. Chips produced by immobilizing the antigen peptide by the amine coupling method to a Series S Sencor Chip CM5 (GE Healthcare), or alternatively, chips produced by allowing preliminarily biotinylated antigen peptides to interact with and immobilize onto a Series S Sensor Chip SA (certified) (GE Healthcare) were used. Antibodies of interest were captured onto an antigen peptide-immobilized chip, and allowed to interact to each FcγR diluted with running buffer. To regenerate and repeatedly use the chip, the antibodies captured on the chip were washed off by reacting 10 mM glycine-HCl, pH 1.5.

T1 sequence (P12314 16-292): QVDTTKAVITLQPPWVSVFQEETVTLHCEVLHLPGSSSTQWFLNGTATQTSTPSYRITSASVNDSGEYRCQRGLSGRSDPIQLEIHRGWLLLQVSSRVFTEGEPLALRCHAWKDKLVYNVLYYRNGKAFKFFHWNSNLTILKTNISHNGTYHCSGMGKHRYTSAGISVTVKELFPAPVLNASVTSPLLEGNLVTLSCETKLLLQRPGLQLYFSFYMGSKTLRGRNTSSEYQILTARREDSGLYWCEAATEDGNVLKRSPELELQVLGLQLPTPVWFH

| Binder | He/Con_1a (Ia binding) |
| --- | --- |
| B1 | 106 relative (control = 100) |
| B2 | 104 relative (control = 100) |
| B3 | 108 relative (control = 100) |
| B4 | 105 relative (control = 100) |
| B5 | 102 relative (control = 100) |
| B6 | 102 relative (control = 100) |
| B7 | 104 relative (control = 100) |
| B8 | 103 relative (control = 100) |
| B9 | 101 relative (control = 100) |
| B10 | 108 relative (control = 100) |
| B11 | 104 relative (control = 100) |
| B12 | 107 relative (control = 100) |
| B13 | 106 relative (control = 100) |
| B14 | 107 relative (control = 100) |
| B15 | 106 relative (control = 100) |
| B16 | 107 relative (control = 100) |
| B17 | 104 relative (control = 100) |

Target: T2, FcγRIIb (human, UniProt P31994 43-217)
T2 construct: extracellular domain; also called FcgRIIb; 2b
T2 sequence (looked up): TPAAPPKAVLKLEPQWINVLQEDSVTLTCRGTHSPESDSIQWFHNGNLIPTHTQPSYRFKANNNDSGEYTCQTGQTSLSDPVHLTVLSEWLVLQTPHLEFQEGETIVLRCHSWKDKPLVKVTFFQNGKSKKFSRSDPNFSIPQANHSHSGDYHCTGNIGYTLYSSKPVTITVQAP
Assay: as above
Experimental: as §1, §2

| Binder | He/Con_2b (IIb binding) |
| --- | --- |
| B1 | 91.2 relative (control = 100) |
| B2 | 92.1 relative (control = 100) |
| B3 | 89.8 relative (control = 100) |
| B4 | 90.3 relative (control = 100) |
| B5 | 92.1 relative (control = 100) |
| B6 | 83.7 relative (control = 100) |
| B7 | 89.5 relative (control = 100) |
| B8 | 68.2 relative (control = 100) |
| B9 | 85.8 relative (control = 100) |
| B10 | 97.6 relative (control = 100) |
| B11 | 58.2 relative (control = 100) |
| B12 | 92 relative (control = 100) |
| B13 | 97.2 relative (control = 100) |
| B14 | 98.9 relative (control = 100) |
| B15 | 97.8 relative (control = 100) |
| B16 | 96.7 relative (control = 100) |
| B17 | 94.3 relative (control = 100) |

Target: T3, FcγRIIIa extracellular domain with C-terminal His tag (human, UniProt P08637 17-208)
T3 construct: extracellular domain; also called 3a; FcgRIIIa
Assay: SPR, relative to GpH7-A5/GpH7-B3/GpL16-k0
Experimental: as §1, §2

T3 sequence (P08637 17-208): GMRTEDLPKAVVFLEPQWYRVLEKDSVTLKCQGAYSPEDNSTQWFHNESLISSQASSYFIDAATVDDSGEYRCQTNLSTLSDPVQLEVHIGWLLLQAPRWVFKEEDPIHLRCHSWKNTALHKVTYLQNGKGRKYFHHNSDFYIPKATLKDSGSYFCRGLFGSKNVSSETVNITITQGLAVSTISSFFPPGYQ

| Binder | He/Con_3a |
| --- | --- |
| B18 | 101 control=100 |
| B19 | 111 control=100 |
| B20 | 104 control=100 |
| B21 | 110 control=100 |
| B22 | 118 control=100 |
| B23 | 106 control=100 |
| B24 | 100 control=100 |
| B25 | 115 control=100 |
| B26 | 160 control=100 |
| B27 | 109 control=100 |
| B28 | 113 control=100 |
| B29 | 105 control=100 |
| B30 | 104 control=100 |
| B31 | 101 control=100 |
| B32 | 103 control=100 |
| B33 | 101 control=100 |
| B34 | 104 control=100 |
| B35 | 102 control=100 |
| B36 | 105 control=100 |

Target: T4, FcγRIIb extracellular domain with C-terminal His tag (human, UniProt P31994 43-217)
T4 construct: extracellular domain; also called 2b; FcgRIIb
T4 sequence (looked up): T2 sequence (looked up)
Assay: SPR, relative to GpH7-A5/GpH7-B3/GpL16-k0
Experimental: as §1, §2

| Binder | He/Con_2b |
| --- | --- |
| B18 | 89.5 control=100 |
| B19 | 87.1 control=100 |
| B20 | 98.4 control=100 |
| B21 | 94.3 control=100 |
| B22 | 99.8 control=100 |
| B23 | 79.7 control=100 |
| B24 | 94.8 control=100 |
| B25 | 66.8 control=100 |
| B26 | 73.4 control=100 |
| B27 | 64.5 control=100 |
| B28 | 77.9 control=100 |
| B29 | 81.1 control=100 |
| B30 | 78.3 control=100 |
| B31 | 85.8 control=100 |
| B32 | 88.4 control=100 |
| B33 | 88.2 control=100 |
| B34 | 83.5 control=100 |
| B35 | 87.5 control=100 |
| B36 | 73.6 control=100 |

Source: patent US20180155451A1 (published 2018)
